Data taken from paper PMC8546341, “A Novel β-Glucosidase From Chryseobacterium scophthalmum 1433 for Efficient Rubusoside Production From Stevioside” (Frontiers in Microbiology, 2021).

B1: CsBGL (Chryseobacterium scophthalmum) (protein)
chain: QEMVTKPVQSYQTGQYQSKKKAFVDALLAKMTLDEKIGQLNLPTSGDFTTGQAQSSDIGKKVEQGLVGGLFNIKGADKIKAVQKVAVEKSRLKIPMIFGMDVIHGYETTFPIPLGLAASWDMNLVQQSARVAAKEAASDGINWTFSPMVDISREPRWGRVSEGSGEDPYLGSEIAKNMVYGYQGKDLANGTNILACVKHFALYGAGEAGRDYNTVDMSHVRMFNEYFPPYKAAVDAGVTSVMASFNEVDGVPATGSRWLQTEVLRNQWKFKGFVVTDYTGINEMVEHGMGDLQQVSALALKAGVDMDMVGEGFLTTLKKSLAEGKVTQAEIDMAARRILEAKYDLGLFDNPYKHGDAKLAAKEVYNLENRNIARSAAAQSMVLMKNENQVLPLKKSGTVAVIGPLVNNSLNMAGTWSVATKHAISVNLMQGLQANYGKDVKFLSAKGANIDYDAKLEDIYAAHGKKTDRDNRSKEALLKEAVDIANKADVIVLAIGESAEMSGESSSRTEITIPQSQVDLLNELKKTGKPIAMVLFTGRPLALTNVKDAPDAILNAWFAGSEAGNAIADVLFGKVNPSGKLPMTFPRSLGQVPIYYNAKNTGRPLAQDKVDKCVYERFRSNYMDECNTPLYPFGYGLSYSKFNYSDVTVSNANPKGNQSIQASVTVTNSGNYDGAEVVQLYIRDMVGSITRPVKELKGFQKVMLKKGESKKVTFDITPESLKFYNGDLKYDWEAGEFDIMIGTNSEEVKHSKINWTK

Legend:
CsBGL = target: T1, CsBGL (Chryseobacterium scophthalmum, UniProt A0A8A3WQK4); assay: inhibition of pNP-β-Glc hydrolysis, p-nitrophenol at […] nm; type: biochemical; conditions: substrate pNP-β-Glc 0.1–10 mM, glucose 0–80 mM, 50 mM sodium phosphate pH 7.4, 45 °C; mode not stated
T1 construct: gene bgl
T1 sequence (A0A8A3WQK4 19-775): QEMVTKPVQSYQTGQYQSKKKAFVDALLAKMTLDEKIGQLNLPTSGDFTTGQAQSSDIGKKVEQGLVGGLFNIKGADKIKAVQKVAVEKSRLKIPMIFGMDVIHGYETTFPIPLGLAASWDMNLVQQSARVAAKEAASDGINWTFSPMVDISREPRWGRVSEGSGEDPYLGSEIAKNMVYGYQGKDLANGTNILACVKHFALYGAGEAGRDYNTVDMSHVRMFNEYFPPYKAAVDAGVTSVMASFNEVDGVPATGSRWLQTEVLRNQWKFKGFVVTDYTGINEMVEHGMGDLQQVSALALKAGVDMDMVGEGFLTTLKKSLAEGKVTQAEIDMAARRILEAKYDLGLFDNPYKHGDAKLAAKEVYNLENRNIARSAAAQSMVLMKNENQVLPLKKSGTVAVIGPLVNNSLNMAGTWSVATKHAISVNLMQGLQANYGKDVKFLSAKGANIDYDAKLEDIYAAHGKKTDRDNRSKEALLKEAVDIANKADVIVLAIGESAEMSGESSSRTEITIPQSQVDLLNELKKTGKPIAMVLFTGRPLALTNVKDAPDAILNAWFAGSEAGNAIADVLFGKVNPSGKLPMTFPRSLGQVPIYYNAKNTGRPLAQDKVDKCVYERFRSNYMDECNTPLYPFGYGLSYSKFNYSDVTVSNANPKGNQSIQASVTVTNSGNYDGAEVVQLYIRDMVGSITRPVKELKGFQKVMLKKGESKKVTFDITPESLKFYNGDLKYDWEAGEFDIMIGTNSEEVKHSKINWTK

purified protein = substrate: O=[N+]([O-])c1ccc(O[C@@H]2O[C@H](CO)[C@@H](O)[C@H](O)[C@H]2O)cc1; assay: purified protein; type: biochemical, Chryseobacterium scophthalmum; conditions: 50 mM sodium phosphate pH 7.4, 45 °C
[1] = substrate: C=C1C[C@@]23CC[C@H]4[C@@](C)(CCC[C@@]4(C)C(=O)O[C@@H]4O[C@H](CO)[C@@H](O)[C@H](O)[C@H]4O)[C@@H]2CC[C@]1(O[C@@H]1O[C@H](CO)[C@@H](O)[C@H](O)[C@H]1O[C@@H]1O[C@H](CO)[C@@H](O)[C@H](O)[C@H]1O)C3; assay: initial velocity of stevioside hydrolysis; type: biochemical, Chryseobacterium scophthalmum; conditions: 50 mM sodium phosphate pH 6.5, 47.5 °C

Molecule	Ki (CsBGL) [mM]	Km (purified protein) [µM]	kcat (purified protein) [s⁻¹]	Km [1] [µM]	kcat [1] [s⁻¹]
OC[C@H]1OC(O)[C@H](O)[C@@H](O)[C@@H]1O (some centres unmarked) [glucose]	16.4				
B1		1620	16.77	1540	248.59
